# Measured values reported in article PMC10507018, “Structure of human drug transporters OATP1B1 and OATP1B3” (Nature Communications, 2023).
# B1: Fab18 (Fab, V domains shown)
# VH: EVQLVESGGGLVQPGGSLRLSCAASGFNFSSSSIHWVRQAPGKGLEWVASISSSSGSTSYADSVKGRFTISADTSKNTAYLQMNSLRAEDTAVYYCARYGWGGPWYYWLRDSRSGIDYWGQGTLVTVSS
# VL: DIQMTQSPSSLSASVGDRVTITCRASQSVSSAVAWYQQKPGKAPKLLIYSASSLYSGVPSRFSGSRSGTDFTLTISSLQPEDFATYYCQQSSSSLITFGQGTKVEIK
# notes: heavy chain (HC) of Fab18 in PDB 8PHW; selected by phage display from synthetic Fab library E against OATP1B3; light chain (LC) of Fab18 in PDB 8PHW; also called synthetic Fab fragment Fab18; source: E. coli C43 (Pro+), pRH2.2, purified (Protein L, Resource S)
# B2: Fab19 (Fab, V domains shown)
# VH: EVQLVESGGGLVQPGGSLRLSCAASGFNFSSSSIHWVRQAPGKGLEWVASISSSSGSTSYADSVKGRFTISADTSKNTAYLQMNSLRAEDTAVYYCARYYIKRWWLMSWEDYSMGLDYWGQGTLVTVSS
# VL: B1 VL
# notes: heavy chain (HC) of Fab19 in PDB 8PG0; selected by phage display from synthetic Fab library E against OATP1B3; light chain (LC) of Fab19 in PDB 8PG0; also called synthetic Fab fragment Fab19; source: E. coli C43 (Pro+), pRH2.2, purified (Protein L, Resource S)
# What was measured:
# [1] = biological target: T1, Human OATP1B1 (organic anion transporting polypeptide 1B1) (human, UniProt Q9Y6L6, N-glycosylation sites N134, N516); experiment: cryo-EM structure; OATP1B1 in lipid nanodiscs (MSP1D1, brain polar lipids with cholesterol), premixed with 1:1.75 molar excess Fab18, SEC in HBS (25 mM HEPES pH 7.4, 150 mM NaCl), with 0.065 mM E1S; details: both partners purified
# T1 construct: wild-type human OATP1B1, gene codon-optimised for human cells (GenScript), in pcDNA5 with a cleavable C-terminal YFP-1D4 tag; The tag was removed with 3C protease after nanodisc reconstitution and before Fab18 was added for cryo-EM; also called SLCO1B1; not shown: YFP, C-terminal, cleaved; 1D4, C-terminal, cleaved
# [2] = biological target: T2, Human OATP1B3 (organic anion transporting polypeptide 1B3) (human, UniProt Q9NPD5, N-glycosylation sites N134, N516); experiment: cryo-EM structure; OATP1B3 in lipid nanodiscs (MSP1D1, brain polar lipids with cholesterol), premixed with Fab19 at a molar ratio of 1:1, SEC in HBS (25 mM HEPES pH 7.4, 150 mM NaCl), with 0.05 mM atazanavir; details: both partners purified
# T2 construct: wild-type human OATP1B3, gene codon-optimised for human cells (GenScript), in pcDNA5 with a cleavable C-terminal YFP-1D4 tag; also called SLCO1B3; not shown: YFP, C-terminal, cleaved; 1D4, C-terminal, cleaved
# T2 sequence (Q9NPD5 whole entry): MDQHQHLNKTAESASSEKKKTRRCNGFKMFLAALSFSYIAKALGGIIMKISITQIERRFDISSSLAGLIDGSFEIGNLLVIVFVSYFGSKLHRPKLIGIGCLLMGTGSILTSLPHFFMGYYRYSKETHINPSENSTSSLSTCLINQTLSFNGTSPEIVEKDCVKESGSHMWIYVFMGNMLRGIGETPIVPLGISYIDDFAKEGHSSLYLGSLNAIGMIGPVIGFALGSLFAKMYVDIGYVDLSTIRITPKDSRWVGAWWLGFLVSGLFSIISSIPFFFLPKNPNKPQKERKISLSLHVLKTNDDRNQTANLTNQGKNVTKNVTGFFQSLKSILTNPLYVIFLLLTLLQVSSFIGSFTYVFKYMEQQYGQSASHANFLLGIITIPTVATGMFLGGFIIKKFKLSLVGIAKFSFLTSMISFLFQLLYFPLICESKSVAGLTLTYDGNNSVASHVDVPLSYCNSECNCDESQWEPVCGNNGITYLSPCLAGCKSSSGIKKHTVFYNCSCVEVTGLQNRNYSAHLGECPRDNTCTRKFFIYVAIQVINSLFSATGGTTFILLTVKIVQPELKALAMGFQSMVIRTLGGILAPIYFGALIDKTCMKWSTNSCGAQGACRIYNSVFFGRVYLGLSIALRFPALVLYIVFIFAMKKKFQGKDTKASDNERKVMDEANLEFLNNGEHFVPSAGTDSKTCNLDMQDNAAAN
# T1 sequence (Q9Y6L6 whole entry): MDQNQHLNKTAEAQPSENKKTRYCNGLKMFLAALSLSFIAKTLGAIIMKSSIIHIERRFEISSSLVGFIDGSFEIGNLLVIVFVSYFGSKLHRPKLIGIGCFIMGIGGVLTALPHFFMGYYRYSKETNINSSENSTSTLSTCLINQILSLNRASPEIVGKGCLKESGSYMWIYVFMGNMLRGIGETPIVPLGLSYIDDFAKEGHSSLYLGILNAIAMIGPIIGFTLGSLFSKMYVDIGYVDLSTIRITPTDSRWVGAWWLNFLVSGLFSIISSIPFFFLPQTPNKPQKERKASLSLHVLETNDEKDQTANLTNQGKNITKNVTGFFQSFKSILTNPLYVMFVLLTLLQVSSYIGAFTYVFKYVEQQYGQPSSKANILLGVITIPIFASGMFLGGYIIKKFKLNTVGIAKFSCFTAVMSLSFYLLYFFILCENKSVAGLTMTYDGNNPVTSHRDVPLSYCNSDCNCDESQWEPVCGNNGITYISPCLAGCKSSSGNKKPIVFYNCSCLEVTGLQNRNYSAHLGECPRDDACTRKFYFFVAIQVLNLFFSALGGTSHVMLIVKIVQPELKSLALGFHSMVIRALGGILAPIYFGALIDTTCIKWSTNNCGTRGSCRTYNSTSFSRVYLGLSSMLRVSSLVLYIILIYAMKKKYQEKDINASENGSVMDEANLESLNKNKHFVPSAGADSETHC
Binder,binding result [1],binding result [2]
B1,binds,–
B2,–,binds
